In data set [1] the test system is FL cultures (FL-DC generation, Flt3). Put plainly: Inhibitor effect on cell numbers in FL BM cultures (FL-DC generation). It is filed as cell-based, mouse. As to conditions: range of concentrations. Here is the method: FIG. 4 and FIG. 8. The generation of M-DC is inhibited by a c-FMS inhibitor. Replicate M-CSF and FL cultures were conducted in parallel in the presence or absence of a range of A: cFMS Receptor Tyrosine Kinase Inhibitor or B: Flt3 Inhibitor concentrations. At the end of the culture period all cells were counted. The number of cells harvested from cultures without inhibitor was set at 100%. Cells from cultures containing inhibitor were expressed as a percentage of cells obtained in the absence of inhibitor. The data shown in each panel are from one experiment each, representative of 2 experiments carried out for each of the inhibitors.
M-CSF and FL BM cultures—BM cells were flushed from femurs and tibiae of mice. Red cell lysis buffer (Sigma-Aldrich) was used to deplete red blood cells from the BM cell suspensions. BM cells were then either cultured directly or after depletion. To deplete, BM cells were incubated for 30 min with rat antibodies to CD11c and CD45R (B220) followed by 30 min incubation with goat anti-rat magnetic beads (Qiagen, Hilden, Germany). The depletion procedure routinely removed 65-80% of total BM cells. It should be noted that depletion with the beads only, in the absence of the rat antibodies, also depleted about 50% of the BM cells, presumably via FcR/Ig interactions. […]

For data set [2], the system named is M-pDC. Put plainly: Activation and cytokine production of sorted M-pDC by TLR ligands. It is filed as cell-based, mouse. As to conditions: TLR2 ligand 1 μg/ml, 18 hrs. As for the experimental part:
Activation of DC subsets and analysis of cytokine production by ELISA—Unsorted M-CSF or FL BM cultures or sorted DCs (0.25−0.5×10^6 cells/ml) were stimulated for 18-24 hrs in complete media with or without an added stimulus. The stimuli used were as follows: 1 μg/ml Pam-3-Cys, 100 μg/ml poly(I:C), 1 μg/ml LPS, 1 μg/ml R837, 1 mM Loxoribine, 0.5 μM CpG2216, 0.5 μM CpG1668. Culture supernatants were assayed for the presence of IFN-α by two-site ELISA as previously described (21). Other cytokines (IL-12 p70, IL-6, TNF-α, MCP-1 and IFN-γ) were measured using the Cytometric Bead Array, Mouse Inflammation Kit (Becton Dickinson). Stimulated DCs were blocked as stated above and stained with antibodies directed to CD8a, CD40, CD69, CD80 and CD86.
The survival of the M-pDC to these stimuli was extremely poor (<5%), data not shown.
Similar to FL-pDCs and ex-vivo pDCs, sorted M-pDC were activated with ligands for TLR7 and 9, as indicated by elevated expression of CD8a, CD69, CD86 and CD40 (FIG. 3B and data not shown). M-pDC only produced detectable cytokines to TLR7 and 9 ligands (FIG. 3C and data not shown). In response to a type A CpG-ODN (CpG2216) M-pDCs produced high levels of IFN-α (FIG. 3C). […] The production of IL-10, IL-12p70, MCP-1 and IFN-γ by the M-pDC was also tested but none of these cytokines were detected.

Data set [3] concerns CMP, CLP, GMP from C57BL/6 BM. The data set is described as follows: M-CSF cultures of purified progenitors (CMP, CLP, GMP) spiked into UBC-GFP BM cells. It is filed as cell-based, mouse. As to conditions: M-CSF culture 6 days. As for the experimental part:
CMP (Lin^−Sca-1^−ckit^+CD34^+FcR^int), CLP (Lin^−Sca-1^+c-kit^intIL-7R^+Thy-1^−) or granulocyte/macrophage progenitors (GMP, Lin^−Sca-1^−c-kit^+CD34^+FcR^hi) were isolated from C57BL/6 BM as previously described^21 and sorted to greater than 95% purity on a FACS-ARIA instrument. 2500 cells and serial 2-fold dilutions thereof were added to a 1 ml suspension of UBC-GFP BM cells in a 24-well plate. Final UBC-GFP BM cell concentration was 1.0×10^6 cells/ml. M-CSF or FL cultures were carried out in these wells as described above. After 6 days, samples were enumerated, analysed by FACS, and progeny arising from the C57BL/6 progenitors were gated as GFP^neg cells. To analyse M-CSFR (CD115) and Flt3 (CD135) expression on CLP (Lin^−Sca-1^+c-kit^intIL-7R^+Thy-1^−), lineage depleted cells were first stained with Sca-1-FITC and Thy-1-PE antibodies and the Sca-1^+Thy-1^− cells were sorted. These pre-enriched cells (>95% purity when reanalysed) were then stained with CD117-PE-CY7, IL-7R-APC and either CD115-PE or CD135-PE.
The identification of DC subtypes that could be generated in the absence of FL both in vivo and in vitro immediately raises the question of the nature of their precursor cells. It has been considered whether this factor acts on an early lineage progenitor or, since M-CSF is traditionally considered a ‘myeloid’ growth factor, on a later precursor within the myeloid lineage to generate M-DC. CMP, GMP and CLP were purified from mouse BM. Serial dilutions of the purified cell populations were admixed with ‘feeder’ UBC-GFP BM cells and M-CSF cultures were carried out for 6 days.

For data set [4] the following is noted: reported in the literature; cited from earlier work.
For data set [5], the system named is BM cells depleted of B220+ and CD11c+ cells. Put plainly: pDC/cDC development in M-CSF BM cultures (CD11c/CD45RA staining). It counts as cell-based, mouse. Here is the method: (§1) M-CSF and FL BM cultures—BM cells were flushed from femurs and tibiae of mice. Red cell lysis buffer (Sigma-Aldrich) was used to deplete red blood cells from the BM cell suspensions. BM cells were then either cultured directly or after depletion. To deplete, BM cells were incubated for 30 min with rat antibodies to CD11c and CD45R (B220) followed by 30 min incubation with goat anti-rat magnetic beads (Qiagen, Hilden, Germany). The depletion procedure routinely removed 65-80% of total BM cells. It should be noted that depletion with the beads only, in the absence of the rat antibodies, also depleted about 50% of the BM cells, presumably via FcR/Ig interactions. Total BM cells or depleted BM cells were cultured at 1.5×10^6 cells/ml in RPMI-1640 media (Gibco) supplemented with 10% FCS, 50 μM beta-mercaptoethanol, 100 IU/ml penicillin/streptomycin (complete media) and either 20 ng/ml recmuM-CSF or rechu-MCSF or 35 ng/ml recmuFL for 6-8 days at 37° C. in a humidified atmosphere containing 5% CO2. The M-CSF cultures were fed with fresh M-CSF every 3 days, without media change.
Surface staining of M-CSF or FL BM cultures—Harvested cells were washed in PBS containing 2% FCS and 2 mM EDTA (FACS buffer). FcR binding was then blocked by incubation with 1 mg/ml purified anti CD16/32 monoclonal antibody (clone 2.4G2) for 20 mins on ice. An equal volume of 2× concentrated specific antibody stain was then added to the cell suspension and incubated for a further 20 mins. Cells were washed in FACS buffer and resuspended in FACS buffer containing 1 μg/ml propidium iodide.
Indeed, a population of 10-20% of cells within the cultures expressed high levels of CD45RA and medium levels of CD11c, together with the lack of CD3, CD19 or CD49b or NK1.1 expression, low side scatter and forward scatter this was commensurate with the phenotype of pDCs (FIG. 1B and data not shown).
It was clear that M-CSF could drive pDC development yet the yield of pDCs was substantially less then that obtained with FL. […]

The subject of data set [6] is mouse bone marrow (BM) cells. The data set is described as follows: IFN-α production of M-CSF BM cultures in response to CpG-2216 (ELISA). It counts as cell-based. Here is the method:
as §1, with “The M-CSF cultures were fed with fresh M-CSF every 3 days, without media change.” left out
Activation of DC subsets and analysis of cytokine production by ELISA—Unsorted M-CSF or FL BM cultures or sorted DCs (0.25−0.5×10^6 cells/ml) were stimulated for 18-24 hrs in complete media with or without an added stimulus. […] Other cytokines (IL-12 p70, IL-6, TNF-α, MCP-1 and IFN-γ) were measured using the Cytometric Bead Array, Mouse Inflammation Kit (Becton Dickinson). […]
(In general: An ELISA detects its analyte on a solid surface through an enzyme-linked reagent.)

Data set [7] has as its system C57BL/6 or FLKO mice. The data set is described as follows: In vivo M-CSF treatment, DC numbers in spleen and peritoneal lavage. Further details: species or system mouse. Here is the method:
In vivo M-CSF treatment—Wild type and FLKO mice were treated ip with 10 μg of M-CSF in 0.01% BSA (100 μl volume), or with vehicle alone, for five consecutive days. At the end of five days mice were sacrificed. The peritoneum was flushed 3 times with Complete media and then organs were collected for DC purification.
Ex vivo DC purification—DCs were purified from spleens of M-CSF or vehicle treated mice essentially as previously described (21), using FACS buffer, RPMI and 1.077A Nycodenz (Progen Biotechnik GmbH, Heidelberg, Germany) that was adjusted to mouse osmolarity (308 mOsm).
Specifically cDC were reduced about 2-fold and pDC about 3-fold. This was substantially less of an effect than that seen in mice lacking FL but nevertheless, lack of M-CSF did result in reduced DC numbers, further substantiating the assumption that M-CSF is a DC poietin. To further validate the studies initiated by MacDonald et al (2005), M-CSF was administered to mice in order to analyze whether M-CSF could actually increase DC numbers in vivo. According to other references in the prior art, a range of exogenous M-CSF concentrations in the range of 10 to 200 μg/day has been administered. The source of M-CSF used has varied widely and consequently, as well as the specific activity. It is thus impossible to gauge an optimal or saturating level of M-CSF to administer. Moreover, it has been reported that M-CSF has an extremely short half-life of only 10 mins in the circulation^28. Due to the prohibitive cost of commercial M-CSF with a determined specific activity a ‘proof of principal’ trial experiment was conducted and 10 μg/day of M-CSF to C57BL/6 or FLKO mice for 5 days were administered. This amount was neither titrated nor was it attempted to extend the application period. […] Said observations indicate that M-CSF indeed was inducing an effect in vivo.

The mark [8] stands for this setting: 10 μg/day ip for 5 days, C57BL/6 and FLKO mice, vs vehicle.

Take Flt3 Inhibitor II: the “effect on generation of FL-DC” value in data set [1] is “highly inhibitory”.

As to “palmitoyl-3-cysteine-serine-lysine-4 [Pam-3-Cys]”, in data set [2], the “surface activation of M-pDC” value is given as “very minor surface activation”.

B1: M-CSF: Recombinant murine or human Macrophage-Colony Stimulating Factor obtained from Tebu-Bio / R&D Systems (protein, UniProt P09603 33-554, looked up)
Macrophage colony-stimulating …: EEVSEYCSHMIGSGHLQSLQRLIDSQMETSCQITFEFVDQEQLKDPVCYLKKAFLLVQDIMEDTMRFRDNTPNAIAIVQLQELSLRLKSCFTKDYEEHDKACVRTFYETPLQLLEKVKNVFNETKNLLDKDWNIFSKNCNNSFAECSSQDVVTKPDCNCLYPKAIPSSDPASVSPHQPLAPSMAPVAGLTWEDSEGTEGSSLLPGEQPLHTVDPGSAKQRPPRSTCQSFEPPETPVVKDSTIGGSPQPRPSVGAFNPGMEDILDSAMGTNWVPEEASGEASEIPVPQGTELSPSRPGGGSMQTEPARPSNFLSASSPLPASAKGQQPADVTGTALPRVGPVRPTGQDWNHTPQKTDHPSALLRDPPEPGSPRISSLRPQGLSNPSTLSAQPQLSRSHSSGSVLPLGELEGRRSTRDRRSPAEPEGGPASEGAARPLPRFNSVPLTDTGHERQSEGSFSPQLQESVFHLLVPSVILVLLAVGGLLFYRWRRRSHQEPQRADSPLEQPEGSPLTQDDRQVELPV
B1: in data set [3] (CLP), the “output of M-cDC per input progenitor cell” value is reported as “about 5” and the “output of M-pDC per input progenitor cell” value is listed as “at least 10”. Besides, in data set [3] (CMP), the “output of M-cDC per input progenitor cell” value is 8-10. Moreover, the “M-DC production from progenitors” value in data set [3] (GMP) is reported as “not capable of M-DC production”. The “half-life in the circulation” value in data set [4] is 10 min. For the same molecule, the “pDC development in BM cultures from FLKO mice” value in data set [5] (FLKO BM depleted of DC, exogenous M-CSF only) is “pDCs developed even in the absence of FL”. The “population of cells with pDC phenotype (CD45RA high, CD11c medium) within the cultures” value in data set [5] (non-adherent M-CSF-generated cells, day 6) was 10-20%. Besides, the “efficiency of pDC yield compared with FL” value in data set [5] (side by side after six days of culture, less efficient than FL) is “approximately 10 fold”. The “CpG-induced IFN-α producing capacity” value in data set [6] (DC-depleted BM cells cultured with M-CSF for 6 days, non-adherent cells) was “potent IFN-α producing capacity was detected again”. Further, the “IFN-α production in response to CpG-2216” value in data set [6] (total BM cells cultured with M-CSF, 0-7 days, adherent and non-adherent cells) was “high levels”. The “increase of cells that resembled DC in the peritoneal lavage” value in data set [7] (10 μg/day for 5 days, a C57BL/6 mouse, data not shown) is “greater than 6 fold”. Further, the “F4/80hi cells in peritoneal lavages” value in data set [7] (10 μg/day for 5 days, data not shown) is reported as “huge increase”. For the same molecule, in data set [7] (10 μg/day ip for 5 days), the total splenocytes result is reported as “did not induce an increase”. Besides, in data set [7] (setting [8]), the “increase in cDC numbers in the spleen” value is given as “about 2 fold” and the “increase in pDC numbers in the spleen” value is listed as “about 2 fold”.

Values taken from patent publication US8445275B2, “Induction of dendritic cell development with macrophage-colony stimulating factor (M-CSF)” (Bavarian Nordic A/S, priority 2007, dated 2013).
